Results published in patent US20260042862A1 (AGENCY FOR SCIENCE TECHNOLOGY AND RESEARCH, published 2026).

Columns and labels:
[1] = target: T1, recombinant human GPC-3 protein (human, UniProt P51654 25-559, limits assumed); assay: SPR, Biacore T200
T1 construct: also called glypican-3; recombinant GPC-3 protein
Procedure: Affinity of 24 anti-GPC-3 IgG₁ antibodies was measured via Surface Plasmon Resonance (SPR) analysis using Biacore™ T200 system and shown in Table E3 (below).

[2] = target: T1, recombinant human GPC-3 protein; assay: binding ELISA with biotin-hGPC-3, EC50 calculated from the curves of FIG. 1A to 1C

Binder | Kd [1] [nM] | koff [1] [s⁻¹] | kon [1] [M⁻¹ s⁻¹] | EC50 [2] [nM]
anti-GPC-3 IgG1 clone 3A9 (antibody, V domains shown, Tested as IgG1; also called monoclonal antibody 3A9) VH: QVQLQQWGAGLLKPSETLSLTCAVYGGSFSGYYWSWIRQPPGKGLEWIGEINHSGSTNYNPSLKSRVTISVDTSKNQFSLKLSSVTAADTAVYYCARLYKRRPFDYWGQGTL VL: not shown | 12.4 | 0.00188 | 151000 | 10.8
anti-GPC-3 IgG1 clone 1A12 (antibody, V domains shown, Tested as IgG1; also called monoclonal antibody 1A12) VH: QVQLQQWGAGLLKPSETLSLTCAAYGGSFSGYYWSWIRQPPGKGLEWIGEINHSGSTNYNPSLKSRVTISVDTSKNQFSLKLSSVTAADTAVYYCARLYKRRPFDYWGQGTL VL: ETTLTQSPGTLSLSPGERATLSCRASQSISSIYLAWYQQKPGQAPRLLIYGASRRATGIPDRFSGSGSGTDFTLTISRLEPEDFAVYYCQQYGSSLRTFGQGTK | 27.6 | 0.00315 | 114000 | 10.2
anti-GPC-3 IgG1 clone 1E1 (antibody, V domains shown, Tested as IgG1; also called monoclonal antibody 1E1) VH: QVQLQQWGAGLLKPSETLSLTCAVYGGSFSGYYWSWIRQPPGKGLEWIGEINHSGSTNYNPSLKSRVTISVDTSKNQFSLKLSSVTAADTAVYYCARLYKRRPFDYWGQGTL VL: VTTLTQSPGTLSLSPGERATLSCRASESVSSRYLAWYQQRPGQAPRLLIYGASRRATGSPERFSGGGSGTDFTLTISRLEPEDFAVYYCQHYGNSPGTFGQGTK | 16.2 | 0.00233 | 144000 | 50.1
anti-GPC-3 IgG1 clone 1F4 (antibody, V domains shown, Tested as IgG1; also called monoclonal antibody 1F4) VH: QVQLQQWGAGLLKPSETLSLTCAVYGGSFSGYYWSWIRQPPGKGLEWIGEINHSGSTNYNPSLKSRVTISVDTSKNQFSLKLSSVTVADTAVYYCARLYKRRPFDYWGQGTL VL: ETTLTQSPGTLSLSPGERATLSCRASQSVSSTYLAWYQQKPGQAPRLLIYGASRRATGSPERFSGGGSGTDFTLTISRLEPEDFAVYYCQHYGNSPGTFGQGTK | 7.2 | 0.00129 | 179000 | 10.3
anti-GPC-3 IgG1 clone 3G12 (antibody, V domains shown, Tested as IgG1; also called monoclonal antibody 3G12) VH: QVQLQQWGAGLLKPSETLSLTCAVYGGSFSGYYWSWIRQPPGKGLEWIGEINHSGSTNYNPSLKSRVTISVDTSKNQFSLKLSSVTAADTAVYYCARLYKRRPFDYWGQGTL VL: ETTLTQSPGTLSLSPGERATLSCRASQSVSSSYLAWYQQKRGQAPRLLIYGASRRATGIPDRFSGSGSGSDFTLTISRLEPEDFAVYYCQQYGSSPSTFGQGTK | 12.5 | 0.00169 | 135000 | 11
anti-GPC-3 IgG1 clone 4G4 (antibody, V domains shown, Tested as IgG1; also called monoclonal antibody 4G4) VH: QVQLQQWGAGLLKPSETLSLTCAVYGGSFSGYYWSWIRQPPGKGLEWIGEINHSGSTNYNPSLKSRVTISVDTSKNQFSLKLSSVTAADTAVYYCARLYKRRPFDYWGQGTL VL: ETTLTQSPGTLSLSPGERATLSCRASQSVSSSYLAWYQQKPGQAPRLLIYNASRRATGIPDRFSGSGSGADFTLTISRLDPEDFAVYFCQQYGSSPQTFGQGTK | 12.9 | 0.00195 | 151000 | 12.3
anti-GPC-3 IgG1 clone 1H10 (antibody, V domains shown, Tested as IgG1; also called monoclonal antibody 1H10) VH: QLQLQESGGGLVQPGGSLRLSCAASGFTFSSYVMSWVRQAPGKGLEWVSTISGSGGSTYYADSVKGRFTISRDNSKNTLYLQMSSLRAEDTAVYYCVMGWYFDLWGRGTL VL: EIVLTQSPGTLSLSPGERATLSCRASQSVSSSYLAWYQQKPGQAPRLLIYDASNRATGIPARFSGSGSGTDFTLTISSLEPEDFAVYYCQQRSNWPPRATFGQGTR | 19.7 | 0.0147 | 748000 | 1.65
anti-GPC-3 IgG1 clone 2B5 (antibody, V domains shown, Tested as IgG1; also called monoclonal antibody 2B5) VH: QVQLQESGGGVVQPGRSLRLSCAASGFTFSSYAMHWVRQAPGKGLEWVAVISYDGSNKYYADSVKGRFTISRDNSKNTLYLQMNSLRAEDTAVYYCAKEGTYYYDSSGYWDYYYGMDVWGQGTT VL: DVVMTQSPLSLPVTPGEPASISCRSSQSLLDSDGYNFLDWYVQKPGQSPQRLIYLGSIRASGVPDRFSGSGSGTDFTLKISRVEADDVGVYYCMQALQTPWTFGQGTK | 12.4 | 0.0038 | 306000 | 11.9
anti-GPC-3 IgG1 clone 2F1 (antibody, V domains shown, Tested as IgG1; also called monoclonal antibody 2F1) VH: EVQLVQSGAEVKKPGSSVKVSCKASGGTFSSYAISWVRQAPGQGLEWMGGIIPIFGTANYAQKFQGRVTITADESTSTAYMELSSLRSEDTAVYYCARDSPYYYYMDVWGKGTT VL: DVVMTQSPLFLPVTLGQPASISCRSSQSLVYSDGNTYLSWFQQRPGQSPRRLVYKVSSRDSGVPDRFSGSGSGTDFTLKISRVEAEDVGVYYCMQGTHWPRTFGQGTK | 14.7 | 0.00181 | 124000 | 2.61
anti-GPC-3 IgG1 clone 3C6 (antibody, V domains shown, Tested as IgG1; also called monoclonal antibody 3C6) VH: QVQLQESGGGVVQPGRSLRLSCAASGFTFSSYAMHWVRQAPGKGLEWVAVISYDGSNKYYADSVKGRFTISRDNSKNTLYLQMNSLRAEDTAVYYCAYGRYNWNLYFDYWGQGTL VL: NFMLTQPHSVSESPGKTVTISCTGSSGSIASNYVQWYQQRPGSVPTTVIYEDNQRPSGVPDRFSGSIDSSSNSASLTISGLKTEDEADYYCQSFDSSNYWVFGGGTK | 8.18 | 0.000472 | 57700 | 20.9
